Results from the supplement of paper PMC9170038.

Test system: MS2 coat protein
Test: apparent KD of MS2 coat protein; designed switch direction (-1 OFF switch, 1 ON switch): -1; higher = weaker reporter binding
Summary of the method: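 The buffer was Tris-HCl pH 7.5 with KCl, MgCl2, BSA, DTT, tRNA and Tween-20. In it, SNAP-549-labelled MS2 coat protein was titrated in doubling steps from 0.7 or 1.5 nM to 3 µM over chip-bound RNA switches transcribed by stalled E. coli RNA polymerase on Illumina chips. Apparent KD is the per-design median over clusters of curve fits to normalised fluorescence.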

[1] = Eterna round: R95, input ligand: FMN 200 uM
[2] = Eterna round: R95, input ligand: microRNA oligo, concentration not stated
[3] = Eterna round: R95, input ligand: none
[4] = input ligand: microRNA oligo, concentration not stated

Row | Sequence | apparent KD of MS2 coat protein [1] | apparent KD of MS2 coat protein [2] | apparent KD of MS2 coat protein [3] | apparent KD of MS2 coat protein (input ligand: FMN 200 uM) | apparent KD of MS2 coat protein (input ligand: none) | apparent KD of MS2 coat protein [4]
1 | GGGCGGCGGACCGUGGCUUUUUGCUCGUCUUAUGCUUCGACAUGAGGAUCACCCAUGUGGUGGUGGUCCGUUGUGGG [Grok-var2-13 mod JAL] (puzzle: Sensor v3, turn-off variant 2) | 18.4 nM | 15.5 nM | 20.8 nM | – | – | –
2 | GGGCGUUAAGGAUAUGAUUGAAGGAACAUGAGGAUCACCCAUGUUCGGUGCCUAAUGUUCUCAGAAGGUGAUAGCU [Eternabot (L1) Solution 50] (Eterna round: R97, puzzle: Exclusion 5) | – | – | – | 186 nM | 175 nM | –
3 | GGGCUAGAAGGAGGAUAUUGAAGAUCCUCACGACAUGAGGAUCACCCAUGUGGUUUAGCAAGGGCCAAGAAGGCCUAUAGCCCA [Zasoan] (Eterna round: R96, puzzle: Exclusion NG 2) | – | – | – | 111 nM | 77.3 nM | 52.1 nM
4 | GGGCUCGGUCUUCCGGCUGGGUCCACAUGAGGAUCACCCAUGUAGGAUAUCCCGGCUGCCGGCCGGGAGAAGGGCGUGUGUUUC [-39.8, -36.9 kcal, 14% A] (Eterna round: R96, puzzle: Exclusion NG 3) | – | – | – | 22.6 nM | 21.5 nM | 13.3 nM
5 | GGGUGACAGUUAGGAUAUCUUAGCACGCCGUAGAGAGAAGGGACAUGAGGAUCACCCAUGUUGUAGUGCCUCCAGCACUGCUAG [Esrasoce] (Eterna round: R96, puzzle: Exclusion NG 1) | – | – | – | 105 nM | 66.4 nM | 34 nM
6 | GGUAAGUGUGACUUGGGUGACAUGAGGAUCACCCAUGUCACAAGCUUGUUGCUCGCCUUGUAAUUAACCCAUGUCAC [LRO Sensor-off var1-28 mod of Stov1-13-A1 by Brourd] (Eterna round: R97, puzzle: Sensor, turn-off variant 1) | – | – | – | 17.3 nM | 18.6 nM | –
7 | GGUACUAACAGCUGACUGUUAGUACUGUAGGUUUGUGUUACAUGAGGAUCACCCAUGUCCUCAUAAGCUCGUCUUGU [JL-sv3-2.23 mat747 mod] (puzzle: Sensor v3, turn-off variant 2) | 382 nM | 252 nM | 445 nM | – | – | –
8 | GGUACUAACAGCUGACUGUUAGUACUGUAGGUUUGUGUUACAUGAGGAUCACCCAUGUCCUCAUAGGCUCGUCUUGU [JL-sv3-2.24 mat747 mod] (puzzle: Sensor v3, turn-off variant 2) | 281 nM | 91.5 nM | 739 nM | – | – | –
9 | GGUACUAUCACCUGAGUGGUAGUGCUAUAAGCUUGUGAUACAUGAGGAUCACCCAUGUCCUCAUUUGCUCGUCUUAU [JL-sv3-2.29 JL mod] (puzzle: Sensor v3, turn-off variant 2) | 602 nM | 610 nM | 824 nM | – | – | –
10 | GGUACUCAAAGAGUACCAAUACGAACAUGAGGAUCACCCAUGUAGGAUAUGCUACUCAAAGAGUAGCAGAAGGACGUGAACCCU [Far Half Aptamer] (Eterna round: R96, puzzle: Exclusion NG 3) | – | – | – | 164 nM | 40.5 nM | 26.5 nM
11 | GGUACUCAAAGAGUACCAAUACGAACAUGAGGAUCACCCAUGUAGGAUAUGCUACUCAAAGAGUAGCAGAAGGAUAUGAUCCAU [Far Half Aptamer v13] (Eterna round: R96, puzzle: Exclusion NG 3) | – | – | – | – | – | 60.5 nM
12 | GGUACUCAAAGAGUACCAAUACGAACAUGAGGAUCACCCAUGUAGGAUAUGCUACUCAAAGAGUAGCAGAAGGAUAUGAUCGAU [Far Half Aptamer v14] (Eterna round: R96, puzzle: Exclusion NG 3) | – | – | – | 45.6 nM | 40.6 nM | 27.9 nM
13 | GGUAGAGUGGUAGGAUAUCCGUCUGUUUCAGUCGGAGAAGGGCCACAGUCACUGGGUCCUAAUAUCAUGGAGACCUGAUCUACU [pwkr exNG1 F6.13] (Eterna round: R96, puzzle: Exclusion NG 1) | – | – | – | 785 nM | 385 nM | 337 nM
14 | GGUCAAGAACAGAUCCGCGCUGCCAUUGACCGCUCAUUUACAUGAGGAUCACCCAUGUUUUUUGCUCAUCUUGUUAC [Usdila] (puzzle: Sensor v3, turn-off variant 2) | 20.2 nM | 62.2 nM | 19.8 nM | – | – | –
15 | GGUCAGAUGGUAGGAUAUCCAUAUCGAGUGACCCUUUCAUAACAUGAGGAUCACCCAUGUUGGUGGGAGAAGGGCCGUACGGCG [salish99_ExNG02_R04_019] (Eterna round: R96, puzzle: Exclusion NG 2) | – | – | – | 17.2 nM | 22 nM | 14.4 nM
16 | GGUCCACGAGGAUAUCGAUUAUAGUACAUGAGGAUCACCCAUGUUGUCCAGGUUUCGUUUCGAGAAGGCGUGGGUU [LRO-Ex5-01] (puzzle: Exclusion 5) | – | 88.1 nM | – | – | – | –
17 | GGUCGCAGGACAGGAUAUCCAAGCGAUCUAACAUGAGGAUCACCCAUGUGCUAAGGCAGAGGGACGGAGAAGGGUCGAUCGGCC [Inqusodire] (Eterna round: R96, puzzle: Exclusion NG 2) | – | – | – | 166 nM | 58.3 nM | 42.4 nM
18 | GGUCGGCGAGGAUAUACAUGAGGAUCACCCAUGUGAUAGAUUGCACGCGUACGUGUAUGUAGAAGGCGCUGACG [JL-ex3-3.30 salish99 mod] (Eterna round: R96, puzzle: Exclusion 3) | – | – | – | 433 nM | 32.8 nM | 24.7 nM
19 | GGUCGGCGAGGAUAUACAUGAGGAUCACCCAUGUGAUAGAUUGCACGCGUACGUGUAUGUAGAAGGCGCUGACG [JL-ex3-3.30 salish99 mod] (puzzle: Exclusion 3) | 811 nM | 29.6 nM | 32.8 nM | – | – | –
20 | GGUCUGCGAGGAUAUACAUGAGGAUCACCCAUGUGAGUGAAACUAGUGAGGUCGAUUGGUAGAAGGCGCGGACG [Mat - Exclusion 3 - Mod of JL D82] (puzzle: Exclusion 3) | 17.7 nM | 63 nM | 17.5 nM | – | – | –
21 | GGUCUGCGAGGAUAUACAUGAGGAUCACCCAUGUGCGAGAAACUAGUGAGGUCGGUUGGUAGAAGGCGCGGACG [Mat - Exclusion 3 - Mod of JL D89] (puzzle: Exclusion 3) | 13.9 nM | 14 nM | 32.8 nM | – | – | –
22 | GGUGCGUAUGUGAGGAUAUGCUGGUCCUUGGAUCGGCAGAAGGCACAUGAGGAUCACCCAUGUGGUGUCGUUCC [salish99_Bmod_ex4_100] (puzzle: Brourd's mod of Exclusion 4) | – | 114 nM | – | – | – | –
23 | GGUGCGUUUGUGAGGAUAUGCUGGUCCUUGGUUCGGCAGAAGGCACAUGAGGAUCACCCAUGUGGUGUCGUGCC [salish99_Bmod_Ex4_045] (puzzle: Brourd's mod of Exclusion 4) | – | 33.1 nM | – | – | – | –
24 | GGUGCGUUUGUGAGGAUAUGCUGGUCCUUGGUUCGGCAGAAGGCACAUGAGGAUCACCCAUGUGGUGUCGUUCC [salish99_Bmod_Ex4_047] (puzzle: Brourd's mod of Exclusion 4) | – | 13.9 nM | – | – | – | –
